From US20220411523A1

Experiments:
[1] = target: Human 4-1BB + Mouse 4-1BB domain1,2A,2B(aa24-86) (human; mouse); assay: FACS, transiently transfected Expi293 cells (cell A)
[2] = target: Human 4-1BB + Mouse 4-1BB domain1,4B,NF(aa24-46,aa139-186) (human; mouse); assay: FACS, transiently transfected Expi293 cells (cell F)
Chain of Human 4-1BB + Mouse 4-1BB domain1,4B,NF(aa24-46,aa139-186) (human; mouse) (chain, as listed by the source): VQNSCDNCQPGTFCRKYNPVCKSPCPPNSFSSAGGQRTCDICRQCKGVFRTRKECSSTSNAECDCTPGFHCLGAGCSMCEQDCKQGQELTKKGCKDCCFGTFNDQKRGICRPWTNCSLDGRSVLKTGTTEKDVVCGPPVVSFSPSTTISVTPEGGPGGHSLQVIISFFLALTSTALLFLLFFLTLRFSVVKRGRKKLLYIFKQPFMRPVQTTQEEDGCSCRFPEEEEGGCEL

Chain of Human 4-1BB + Mouse 4-1BB domain1,2A,2B(aa24-86) (human; mouse) (chain, as listed by the source): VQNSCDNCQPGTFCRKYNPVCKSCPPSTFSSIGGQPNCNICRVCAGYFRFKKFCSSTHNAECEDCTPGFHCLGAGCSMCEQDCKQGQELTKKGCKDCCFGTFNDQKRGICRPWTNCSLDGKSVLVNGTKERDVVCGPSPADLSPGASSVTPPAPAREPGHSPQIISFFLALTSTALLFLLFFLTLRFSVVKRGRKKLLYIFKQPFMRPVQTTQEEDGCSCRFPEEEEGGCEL

- Mean fluorescence intensity [1]: 948
- Mean fluorescence intensity [2]: 1870
B1: Hanke10F4 (antibody, human IgG4 S228P, kappa, V domains shown)
VH: QVQLQESGPGLVKPSETLSITCTVSGSSLTSYGVHWVRQPPGKGLEGLGVIWPGGSTNYNSALMSRLTISKDNSKSQVSLKMSSLTAADTAMYYCARVTGTWYFDVWGQGTTVTVSS
VL: DIQMTQSPSSLSASLGDRVTISCSASQGISNYLNWYQQKPDGTVKLLIYYTSTLHSGVPSRFSGSGSGTDFTLTISSLQPEDVATYYCQQYSKLPWTFGGGTKLEIKR
